Laboratory results published in PMC10602884, “Distinct RPA functions promote eukaryotic DNA replication initiation and elongation”.

T1: Gp32 (T4 bacteriophage, UniProt P03695 1-301)
T1 sequence: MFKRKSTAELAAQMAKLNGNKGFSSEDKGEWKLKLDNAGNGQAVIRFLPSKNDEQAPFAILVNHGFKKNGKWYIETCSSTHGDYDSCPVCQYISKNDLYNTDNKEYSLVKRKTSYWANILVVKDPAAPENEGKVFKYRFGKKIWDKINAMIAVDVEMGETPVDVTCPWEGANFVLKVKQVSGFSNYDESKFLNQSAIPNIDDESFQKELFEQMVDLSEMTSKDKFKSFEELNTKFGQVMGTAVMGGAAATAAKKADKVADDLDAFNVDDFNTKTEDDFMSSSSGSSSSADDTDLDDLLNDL

B1: 6-FAM-oligo-dT60 (ssDNA)
DNA: TTTTTTTTTTTTTTTTTTTTTTTTTTTTTTTTTTTTTTTTTTTTTTTTTTTTTTTTTTTT

Assays:
Pol-alpha/primase = Pol-alpha/primase (UniProt P13382;P38121;P20457;P10363 1-1468;1-705;1-528;1-409); experiment: fluorescence anisotropy; DNA pre-bound with equimolar (2.5 nM) RPA-deltaOB-F (P8); matches naked DNA; 30 mM HEPES pH 7.5, 30 mM NaCl, 0.25 mM EDTA, 10% glycerol, 0.01% NP-40, 1 mM DTT, plus 0.5 M NaCl for dT30 (no supplemental NaCl for dT60), 2.5 nM DNA, room temperature, 30 min; settings: protein: recombinant; copies: 1;1;1;1; label: 6-FAM; single strand
[1] = target: RPA (CBP-Rfa1, Rfa2, Rfa3) (Saccharomyces cerevisiae, UniProt P22336;P26754;P26755 1-621;1-273;1-122); experiment: fluorescence anisotropy; 0.5 M NaCl; apparent Kd, Hill coefficient 2.460; 30 mM HEPES pH 7.5, 30 mM NaCl, 0.25 mM EDTA, 10% glycerol, 0.01% NP-40, 1 mM DTT, plus 0.5 M NaCl for dT30 (no supplemental NaCl for dT60), 2.5 nM DNA, room temperature, 30 min; settings: protein: recombinant; tags: CBP on Rfa1; copies: 1;1;1; label: 6-FAM; single strand
RPA-Tri-C (OB-C/D/E) = RPA-Tri-C (OB-C/D/E) (Saccharomyces cerevisiae, UniProt P22336;P26754;P26755 442-621;32-182;1-122); experiment: fluorescence anisotropy; 0.5 M NaCl; apparent Kd, Hill fit; 30 mM HEPES pH 7.5, 30 mM NaCl, 0.25 mM EDTA, 10% glycerol, 0.01% NP-40, 1 mM DTT, plus 0.5 M NaCl for dT30 (no supplemental NaCl for dT60), 2.5 nM DNA, room temperature, 30 min; settings: protein: recombinant; tags: Rfa2 C-terminal MxeGyrA intein-CBD-6xHis (in expression construct); copies: 1;1;1; label: 6-FAM; single strand
RPA-deltaOB-F-deltaWH = RPA-deltaOB-F-deltaWH (Saccharomyces cerevisiae, UniProt P22336;P26754;P26755 131-621;1-202;1-122); experiment: as above; settings: protein: recombinant; tags: CBP on Rfa1; 3xFlag on Rfa2; copies: 1;1;1; label: 6-FAM; single strand
EcSSB = EcSSB (Escherichia coli, UniProt P0AGE0 1-178); experiment: as above; settings: protein: commercial; chain copies: 4; label: 6-FAM; single strand
Gp32 = target: T1, Gp32; experiment: as above; settings: protein: commercial; label: 6-FAM; single strand

RPA-Tri-C (OB-C/D/E), sequence (P22336 442-621, chain 1 of 3): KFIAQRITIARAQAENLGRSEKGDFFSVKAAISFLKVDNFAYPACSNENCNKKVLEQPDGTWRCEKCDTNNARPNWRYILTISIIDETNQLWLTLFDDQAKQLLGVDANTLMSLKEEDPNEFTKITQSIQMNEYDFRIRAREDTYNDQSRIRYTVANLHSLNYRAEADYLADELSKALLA
RPA-Tri-C (OB-C/D/E), sequence (P26754 32-182, chain 2 of 3): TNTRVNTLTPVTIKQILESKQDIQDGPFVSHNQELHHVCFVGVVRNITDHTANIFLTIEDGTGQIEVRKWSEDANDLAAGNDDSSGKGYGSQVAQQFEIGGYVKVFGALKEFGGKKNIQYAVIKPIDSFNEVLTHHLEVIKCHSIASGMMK
RPA-Tri-C (OB-C/D/E), sequence (P26755 whole entry, chain 3 of 3): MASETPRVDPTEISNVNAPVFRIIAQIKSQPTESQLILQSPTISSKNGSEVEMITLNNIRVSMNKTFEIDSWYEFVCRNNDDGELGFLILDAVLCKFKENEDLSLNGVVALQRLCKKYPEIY
EcSSB, sequence (P0AGE0 whole entry): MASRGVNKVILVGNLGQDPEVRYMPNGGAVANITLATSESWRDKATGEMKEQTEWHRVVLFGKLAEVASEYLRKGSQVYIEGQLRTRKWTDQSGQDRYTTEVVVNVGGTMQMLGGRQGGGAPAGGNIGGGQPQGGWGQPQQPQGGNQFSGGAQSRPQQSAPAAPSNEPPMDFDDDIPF
RPA (CBP-Rfa1, Rfa2, Rfa3), sequence (P22336 whole entry, chain 1 of 3): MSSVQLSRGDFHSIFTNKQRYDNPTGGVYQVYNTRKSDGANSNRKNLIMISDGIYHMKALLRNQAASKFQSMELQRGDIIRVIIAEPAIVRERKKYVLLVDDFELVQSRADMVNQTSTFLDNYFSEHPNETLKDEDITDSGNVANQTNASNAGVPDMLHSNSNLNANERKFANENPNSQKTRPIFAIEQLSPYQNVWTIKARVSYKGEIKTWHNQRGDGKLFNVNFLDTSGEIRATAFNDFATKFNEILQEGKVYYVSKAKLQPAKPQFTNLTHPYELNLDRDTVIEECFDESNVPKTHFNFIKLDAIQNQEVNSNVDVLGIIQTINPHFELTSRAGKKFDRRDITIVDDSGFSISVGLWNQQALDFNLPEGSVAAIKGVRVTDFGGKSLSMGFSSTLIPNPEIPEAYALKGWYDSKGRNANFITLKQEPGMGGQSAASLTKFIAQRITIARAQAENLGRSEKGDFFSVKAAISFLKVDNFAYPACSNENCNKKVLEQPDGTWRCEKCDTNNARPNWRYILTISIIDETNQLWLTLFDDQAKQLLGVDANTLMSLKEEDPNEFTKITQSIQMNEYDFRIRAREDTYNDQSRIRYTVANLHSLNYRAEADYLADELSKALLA
RPA (CBP-Rfa1, Rfa2, Rfa3), sequence (P26754 whole entry, chain 2 of 3): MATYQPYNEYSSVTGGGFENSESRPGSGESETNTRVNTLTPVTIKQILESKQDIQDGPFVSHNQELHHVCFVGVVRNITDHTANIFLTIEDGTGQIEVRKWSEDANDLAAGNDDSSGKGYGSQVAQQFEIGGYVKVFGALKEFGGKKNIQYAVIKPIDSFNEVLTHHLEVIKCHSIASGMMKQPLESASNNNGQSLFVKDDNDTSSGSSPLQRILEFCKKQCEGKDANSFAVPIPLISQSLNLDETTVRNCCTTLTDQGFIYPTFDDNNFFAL
RPA (CBP-Rfa1, Rfa2, Rfa3), sequence (P26755 whole entry, chain 3 of 3): as the sequence (P26755 whole entry, chain 3 of 3) above
RPA-deltaOB-F-deltaWH, sequence (P22336 131-621, stated change not applied, chain 1 of 3): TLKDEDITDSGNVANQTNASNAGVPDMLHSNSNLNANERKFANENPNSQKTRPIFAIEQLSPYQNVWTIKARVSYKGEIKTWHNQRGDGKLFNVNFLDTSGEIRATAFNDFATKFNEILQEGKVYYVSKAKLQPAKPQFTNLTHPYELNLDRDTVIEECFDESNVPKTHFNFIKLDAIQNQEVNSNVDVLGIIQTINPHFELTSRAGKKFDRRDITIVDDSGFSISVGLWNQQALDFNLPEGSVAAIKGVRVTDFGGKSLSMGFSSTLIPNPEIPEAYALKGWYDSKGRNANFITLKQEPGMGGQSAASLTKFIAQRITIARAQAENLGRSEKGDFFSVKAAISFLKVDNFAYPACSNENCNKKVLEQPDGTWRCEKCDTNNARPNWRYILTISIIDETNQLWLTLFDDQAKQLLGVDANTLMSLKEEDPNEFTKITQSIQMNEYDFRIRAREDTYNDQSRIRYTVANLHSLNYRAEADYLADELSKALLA
RPA-deltaOB-F-deltaWH, sequence (P26754 1-202, stated change not applied, chain 2 of 3): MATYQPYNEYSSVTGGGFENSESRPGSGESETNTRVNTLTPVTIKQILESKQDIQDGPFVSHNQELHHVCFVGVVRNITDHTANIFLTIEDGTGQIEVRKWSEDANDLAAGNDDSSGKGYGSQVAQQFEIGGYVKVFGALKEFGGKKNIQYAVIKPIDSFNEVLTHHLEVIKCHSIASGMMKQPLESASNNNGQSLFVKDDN
RPA-deltaOB-F-deltaWH, sequence (P26755 whole entry, stated change not applied, chain 3 of 3): as the sequence (P26755 whole entry, chain 3 of 3) above

Row | Binder | binding result (Pol-alpha/primase) | Kd [1] [nM] | Kd (RPA-Tri-C (OB-C/D/E)) [nM] | Kd (RPA-deltaOB-F-deltaWH) [nM] | Kd (EcSSB) [nM] | Kd (Gp32) [nM]
1 | B1 | binds |  |  |  |  | 
2 | TTTTTTTTTTTTTTTTTTTTTTTTTTTTTT (ssDNA) [6-FAM-oligo-dT30] |  | 1.73 | ~2.97 | ~2.04 | ~0.11 | ~18
